In patent publication US20180030116A1 (Amgen, published 2018):
Where two headings read alike, the source gives them in different places.

T1: MMP2 (human, UniProt P08253 30-660)
T1 sequence (looked up): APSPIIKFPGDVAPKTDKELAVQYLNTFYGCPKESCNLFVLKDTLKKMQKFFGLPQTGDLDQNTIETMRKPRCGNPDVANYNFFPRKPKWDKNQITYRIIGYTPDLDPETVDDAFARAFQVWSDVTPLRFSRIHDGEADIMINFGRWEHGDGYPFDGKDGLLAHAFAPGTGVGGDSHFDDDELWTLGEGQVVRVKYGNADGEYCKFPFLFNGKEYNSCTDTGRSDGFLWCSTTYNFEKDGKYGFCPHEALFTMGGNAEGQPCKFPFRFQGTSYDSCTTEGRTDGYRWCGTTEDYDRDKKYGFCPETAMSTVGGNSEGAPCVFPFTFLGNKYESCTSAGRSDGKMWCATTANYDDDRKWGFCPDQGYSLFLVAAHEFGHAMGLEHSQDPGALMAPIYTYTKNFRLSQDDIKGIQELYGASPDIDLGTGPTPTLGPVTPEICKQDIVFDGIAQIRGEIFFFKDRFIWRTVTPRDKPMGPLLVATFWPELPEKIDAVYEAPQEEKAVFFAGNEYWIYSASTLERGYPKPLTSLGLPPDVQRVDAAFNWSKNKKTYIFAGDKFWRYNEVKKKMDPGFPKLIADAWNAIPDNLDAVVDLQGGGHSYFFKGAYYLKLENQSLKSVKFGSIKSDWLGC


Columns and labels:
Assay in all cases: cell-based or functional assay
[1] = target: MMP2 (human) (UniProt P08253)
[2] = target: MMP9 (human) (UniProt P14780)
[3] = target: T1, MMP2
[4] = target: T2, MMP9 (human, UniProt P14780 107-457, limits assumed)
[5] = target: T1, MMP2; remark: listed apart in the source
[6] = target: T2, MMP9; remark: listed apart in the source
[7] = target: T1, MMP2; remark: listed apart in the source
[8] = target: T2, MMP9; remark: listed apart in the source
[9] = target: TNF alpha converting enzyme (TACE) (UniProt P78536)
Chain of TNF alpha converting enzyme (TACE) (P78536 215-671 limits assumed): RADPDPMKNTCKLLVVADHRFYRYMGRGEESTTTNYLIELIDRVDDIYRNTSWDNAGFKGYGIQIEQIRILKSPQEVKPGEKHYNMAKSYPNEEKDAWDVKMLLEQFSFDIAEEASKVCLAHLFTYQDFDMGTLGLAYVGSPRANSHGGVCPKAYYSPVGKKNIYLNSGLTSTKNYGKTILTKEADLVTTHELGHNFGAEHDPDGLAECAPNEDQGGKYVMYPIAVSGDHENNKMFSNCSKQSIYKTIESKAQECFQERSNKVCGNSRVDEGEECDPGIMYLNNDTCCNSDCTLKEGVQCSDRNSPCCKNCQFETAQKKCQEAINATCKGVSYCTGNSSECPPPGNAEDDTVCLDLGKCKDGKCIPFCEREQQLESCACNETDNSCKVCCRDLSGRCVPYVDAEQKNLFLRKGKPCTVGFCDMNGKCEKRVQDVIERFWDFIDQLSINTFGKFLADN

T2 sequence (P14780 107-457 limits assumed): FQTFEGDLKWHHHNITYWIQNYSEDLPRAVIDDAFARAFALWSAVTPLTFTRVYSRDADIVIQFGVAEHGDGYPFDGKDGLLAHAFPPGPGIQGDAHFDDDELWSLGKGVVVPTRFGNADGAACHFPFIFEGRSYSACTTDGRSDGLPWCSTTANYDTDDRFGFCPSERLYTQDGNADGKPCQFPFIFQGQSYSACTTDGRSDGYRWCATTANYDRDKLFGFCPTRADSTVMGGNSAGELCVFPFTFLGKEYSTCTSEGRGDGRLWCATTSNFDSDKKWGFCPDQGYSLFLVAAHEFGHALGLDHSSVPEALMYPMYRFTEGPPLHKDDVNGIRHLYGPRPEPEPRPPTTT
Chain of MMP9 (human) (P14780 107-457 limits assumed): as above

Row | Molecule | shift in MMP2 inhibitory activity (fold decrease) as compared to wild-type (fold decrease vs wild-type) [5] | shift in MMP9 inhibitory activity (fold decrease) as compared to wild-type (fold decrease vs wild-type) [6] | further results
1 | TIMP-3 [H78N, Q80T, K94N, E96T, D110N, K112T, R138T] (SEQ ID NO:26) fused to HSA (from UniProt P02768 25-609) |  |  | MMP2 EC50 (inhibition of MMP activity, FRET peptide substrate) [1]: 1.4 nM; MMP9 EC50 (inhibition of MMP activity, FRET peptide substrate) [2]: 5.1 nM
2 | TIMP-3 [H78N, Q80T, K94N, E96T, D110N, K112T, R138T] (SEQ ID NO:26) fused to IgG (from UniProt P35625 24-211) |  |  | MMP2 EC50 (inhibition of MMP activity, FRET peptide substrate) [3]: 14 nM; MMP9 EC50 (inhibition of MMP activity, FRET peptide substrate) [4]: 26 nM
3 | N-TIMP3 fused to HSA (from UniProt P02768 25-609) |  |  | MMP2 EC50 (inhibition of MMP activity, FRET peptide substrate) [1]: 38.7 nM; MMP9 EC50 (inhibition of MMP activity, FRET peptide substrate) [2]: 36.5 nM
4 | N-TIMP3 fused to Fc (Fc fusion, part only; not given: Fc carrier, unspecified, part only) chain, part: CTCSPSHPQDAFCNSDIVIRAKVVGKKLVKEGPFGTLVYTIKQMKMYRGFTKMPHVQYIHTEASESLCGLKLEVNKYQYLLTGRVYDGKMYTGLCNFVERWDQLTLSQRKGLNYRYHLGCN |  |  | MMP2 EC50 (inhibition of MMP activity, FRET peptide substrate) [5]: 6.9 nM; MMP9 EC50 (inhibition of MMP activity, FRET peptide substrate) [6]: 1.6 nM
5 | N-TIMP3 (N-terminal TIMP-3 domain, AA 1-144) (other) CTCSPSHPQDAFCNSDIVIRAKVVGKKLVKEGPFGTLVYTIKQMKMYRGFTKMPHVQYIHTEASESLCGLKLEVNKYQYLLTGRVYDGKMYTGLCNFVERWDQLTLSQRKGLNYRYHLGCN |  |  | MMP2 EC50 (inhibition of MMP activity, FRET peptide substrate) [7]: 7.6 nM; MMP9 EC50 (inhibition of MMP activity, FRET peptide substrate) [8]: 1.7 nM
6 | TIMP-3 [K45N, V47T, P56N, G58T, K94N, E96T, R138T] (SEQ ID NO:4) (protein, 4 engineered N-linked glycosylation sites (# EG, Table 2)) CTCSPSHPQDAFCNSDIVIRANVTGKKLVKEGNFTTLVYTIKQMKMYRGFTKMPHVQYIHTEASESLCGLNLTVNKYQYLLTGRVYDGKMYTGLCNFVERWDQLTLSQRKGLNYTYHLGCNCKIKSCYYLPCFVTSKNECLWTDMLSNFGYPGYQSKHYACIRQKGGYCSWYRGWAPPDKSIINATDP | 1 | 9 | 
7 | TIMP-3 [K45S, F57N, K94N, E96T, D110N, K112T, R138T] (SEQ ID NO:12) (protein, 4 engineered N-linked glycosylation sites (# EG, Table 2)) CTCSPSHPQDAFCNSDIVIRASVVGKKLVKEGPNGTLVYTIKQMKMYRGFTKMPHVQYIHTEASESLCGLNLTVNKYQYLLTGRVYNGTMYTGLCNFVERWDQLTLSQRKGLNYTYHLGCNCKIKSCYYLPCFVTSKNECLWTDMLSNFGYPGYQSKHYACIRQKGGYCSWYRGWAPPDKSIINATDP | 3 | 74 | 
8 | TIMP-3 [K45N, V47T, F57N, K94N, E96T, R138T] (SEQ ID NO:7) (protein, 4 engineered N-linked glycosylation sites (# EG, Table 2)) CTCSPSHPQDAFCNSDIVIRANVTGKKLVKEGPNGTLVYTIKQMKMYRGFTKMPHVQYIHTEASESLCGLNLTVNKYQYLLTGRVYDGKMYTGLCNFVERWDQLTLSQRKGLNYTYHLGCNCKIKSCYYLPCFVTSKNECLWTDMLSNFGYPGYQSKHYACIRQKGGYCSWYRGWAPPDKSIINATDP | 2 | 38 | 
9 | TIMP-3 [P56N, G58T K94N, E96T, Q126N, R138T] (SEQ ID NO:21) (protein, 4 engineered N-linked glycosylation sites (# EG, Table 2)) CTCSPSHPQDAFCNSDIVIRAKVVGKKLVKEGNFTTLVYTIKQMKMYRGFTKMPHVQYIHTEASESLCGLNLTVNKYQYLLTGRVYDGKMYTGLCNFVERWDNLTLSQRKGLNYTYHLGCNCKIKSCYYLPCFVTSKNECLWTDMLSNFGYPGYQSKHYACIRQKGGYCSWYRGWAPPDKSIINATDP | 2 | 22 | 
10 | TIMP-3 [H78N, Q80T, K94N, E96T, D110N, K112T, R138T] (SEQ ID NO:26) fused to Fc (Fc fusion, not shown: a dimerising Fc or GST) CTCSPSHPQDAFCNSDIVIRAKVVGKKLVKEGPFGTLVYTIKQMKMYRGFTKMPNVTYIHTEASESLCGLNLTVNKYQYLLTGRVYNGTMYTGLCNFVERWDQLTLSQRKGLNYTYHLGCNCKIKSCYYLPCFVTSKNECLWTDMLSNFGYPGYQSKHYACIRQKGGYCSWYRGWAPPDKSIINATDP |  |  | MMP2 EC50 (inhibition of MMP activity, FRET peptide substrate) [5]: 13.3 nM; MMP9 EC50 (inhibition of MMP activity, FRET peptide substrate) [6]: 32.9 nM
11 | TIMP-3 [K50N, V52T, K94N, E96T, D110N, K112T, R138T, G173T] (SEQ ID NO:17) (protein, 5 engineered N-linked glycosylation sites (# EG, Table 2)) CTCSPSHPQDAFCNSDIVIRAKVVGKNLTKEGPFGTLVYTIKQMKMYRGFTKMPHVQYIHTEASESLCGLNLTVNKYQYLLTGRVYNGTMYTGLCNFVERWDQLTLSQRKGLNYTYHLGCNCKIKSCYYLPCFVTSKNECLWTDMLSNFTYPGYQSKHYACIRQKGGYCSWYRGWAPPDKSIINATDP | 5 | 21 | shift in TACE inhibitory activity (fold decrease) as compared to wild-type (fold decrease vs wild-type) [9]: 2
12 | TIMP-3 [P56N, G58T, H78N, Q80T, K94N, E96T, R138T] (SEQ ID NO:20) (protein, 4 engineered N-linked glycosylation sites (# EG, Table 2)) CTCSPSHPQDAFCNSDIVIRAKVVGKKLVKEGNFTTLVYTIKQMKMYRGFTKMPNVTYIHTEASESLCGLNLTVNKYQYLLTGRVYDGKMYTGLCNFVERWDQLTLSQRKGLNYTYHLGCNCKIKSCYYLPCFVTSKNECLWTDMLSNFGYPGYQSKHYACIRQKGGYCSWYRGWAPPDKSIINATDP | 2 | 15 | 
13 | TIMP-3 [P56N, G58T, K94N, E96T, D110N, K112T, R138T] (SEQ ID NO:22) (protein, 4 engineered N-linked glycosylation sites (# EG, Table 2)) CTCSPSHPQDAFCNSDIVIRAKVVGKKLVKEGNFTTLVYTIKQMKMYRGFTKMPHVQYIHTEASESLCGLNLTVNKYQYLLTGRVYNGTMYTGLCNFVERWDQLTLSQRKGLNYTYHLGCNCKIKSCYYLPCFVTSKNECLWTDMLSNFGYPGYQSKHYACIRQKGGYCSWYRGWAPPDKSIINATDP | 2 | 20 | 
14 | TIMP-3 [K50N, V52T P56N, G58T, K94N, E96T, D110N, K112T, R138T] (SEQ ID NO:14) (protein, 5 engineered N-linked glycosylation sites (# EG, Table 2)) CTCSPSHPQDAFCNSDIVIRAKVVGKNLTKEGNFTTLVYTIKQMKMYRGFTKMPHVQYIHTEASESLCGLNLTVNKYQYLLTGRVYNGTMYTGLCNFVERWDQLTLSQRKGLNYTYHLGCNCKIKSCYYLPCFVTSKNECLWTDMLSNFGYPGYQSKHYACIRQKGGYCSWYRGWAPPDKSIINATDP | 2 | 19 | 
15 | TIMP-3 [K45N, V47T, K94N, E96T, D110N, K112T, G173T] (SEQ ID NO:10) (protein, 4 engineered N-linked glycosylation sites (# EG, Table 2)) CTCSPSHPQDAFCNSDIVIRANVTGKKLVKEGPFGTLVYTIKQMKMYRGFTKMPHVQYIHTEASESLCGLNLTVNKYQYLLTGRVYNGTMYTGLCNFVERWDQLTLSQRKGLNYRYHLGCNCKIKSCYYLPCFVTSKNECLWTDMLSNFTYPGYQSKHYACIRQKGGYCSWYRGWAPPDKSIINATDP | 2 | 9 | shift in TACE inhibitory activity (fold decrease) as compared to wild-type (fold decrease vs wild-type) [9]: 2
16 | TIMP-3 [K50N, V52T, K94N, E96T, D110N, K112T, R138T] (SEQ ID NO:16) (protein, 4 engineered N-linked glycosylation sites (# EG, Table 2)) CTCSPSHPQDAFCNSDIVIRAKVVGKNLTKEGPFGTLVYTIKQMKMYRGFTKMPHVQYIHTEASESLCGLNLTVNKYQYLLTGRVYNGTMYTGLCNFVERWDQLTLSQRKGLNYTYHLGCNCKIKSCYYLPCFVTSKNECLWTDMLSNFGYPGYQSKHYACIRQKGGYCSWYRGWAPPDKSIINATDP | 3 | 10 | shift in TACE inhibitory activity (fold decrease) as compared to wild-type (fold decrease vs wild-type) [9]: 0.6
17 | TIMP-3 [K45N, V47T, F57N, K94N, E96T, D110N, K112T] (SEQ ID NO:6) (protein, 4 engineered N-linked glycosylation sites (# EG, Table 2)) CTCSPSHPQDAFCNSDIVIRANVTGKKLVKEGPNGTLVYTIKQMKMYRGFTKMPHVQYIHTEASESLCGLNLTVNKYQYLLTGRVYNGTMYTGLCNFVERWDQLTLSQRKGLNYRYHLGCNCKIKSCYYLPCFVTSKNECLWTDMLSNFGYPGYQSKHYACIRQKGGYCSWYRGWAPPDKSIINATDP | 2 | 59 | 
